Laboratory results from paper PMC6853979, “Structures of GapR reveal a central channel which could accommodate B-DNA”.

Legend:
[1] = molecular target: GapRΔ1-11 (Caulobacter crescentus); experiment: crystal structure; GapR or GapRΔ1-11 crystallised with 19-bp dsDNA (DNA not seen in the maps), sitting drop, room temperature, ammonium sulfate and PEG 3350; tetramer formed by crystallographic symmetry
[2] = molecular target: GapR (full length, Caulobacter crescentus) (Caulobacter crescentus); experiment: as above
[3] = molecular target: GapR (full length, Caulobacter crescentus) (Caulobacter crescentus); experiment: SEC; 6.25 μM protein (calculated as tetramer); GapR without and with 20 μM 19 bp DNA on Superdex 200 Increase 10 300 GL; GapR and GapR6KtoE on HiLoad 16/600 Superdex 200 pg against protein standards
[4] = molecular target: GapR (full length, Caulobacter crescentus) (Caulobacter crescentus); experiment: SEC-MALS; 50 μl of GapR at 0.5 mM (calculated as tetramer), no DNA, Superdex-200 Increase 10 300 GL, SEC buffer (20 mM HEPES pH 7.4, 200 mM NaCl, 0.2 mM TCEP)
GapR = molecular target: T1, GapR (Caulobacter crescentus, UniProt Q9A385 1-89); experiment: EMSA; 0.425 uM tetramer, 1.7 uM DNA; EMSA: 10 mM Tris pH 7.5, 50 mM NaCl, 1 mM EDTA; 8% gel in 0.5x TBE pH 8.3 at 4 C; conditions: protein: recombinant; tags: N-terminal His8 cleaved by TEV (vector residues may remain); chain copies: 4; blunt
T1 sequence: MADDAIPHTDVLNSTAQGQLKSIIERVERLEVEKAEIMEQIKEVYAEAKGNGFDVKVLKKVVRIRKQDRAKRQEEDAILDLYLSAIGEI

Molecule: GapRΔ1-11 (domain or fragment)
- stoichiometry N [1]: 4

Molecule: GapR (full length, Caulobacter crescentus) (natural protein)
- stoichiometry N [2]: 4
- stoichiometry N [3]: 4
- stoichiometry N [4]: 4

B1: 19 bp oligonucleotide (19mer) (dsDNA)
DNA 1: GTTAAGCAACCGTTAACGG
DNA 2: CCGTTAACGGTTGCTTAAC
- binding result (GapR): binds
